{"source": "patent US7285408B2", "about": "“Crystalline form of an n231 mutant catalytic domain of ADAM33 and methods of use thereof” (Schering Corporation, priority 2002, dated 2007)", "molecules": {"B1": {"name": "ADAM33 N231Q: modified human ADAM33 catalytic domain, Asn231 replaced by glutamine (SEQ ID NO: 8) with C-terminal Ser-Gly His6 Tag (protein)", "chain": "EARRTRKYLELYIVADHTLFLTRHRNLQHTKQRLLEVANYVDQLLRTLDIQVALTGLEVWTERDRSRVTQDANATLWAFLQWRRGLWAQRPHDSAQLLTGRAFQGATVGLAPVEGMCRAESSGGVSTDHSELPIGAAATMAHEIGHSLGLSHDPDGCCVEAAAESGGCVMAAATGHPFPRVFSACSRRQLRAFFRKGGGACLSNAPSGHHHHHH", "modifications": "C-terminal Ser-Gly His6 tag; homo sapiens"}, "B2": {"name": "wild type (WT) ADAM33: ADAM33 protein fragment with pre, pro and wild type catalytic domain and Ser-Gly-His6 Tag expressed in Drosophila S2 cells (SEQ ID NO: 2) (protein)", "chain": "MKLCILLAVVAFVGLSLGRSPWPGVPLQGHIPGQPVTPHWVLDGQPWRTVSLEEPVSKPDMGLVALEAEGQELLLELEKNHRLLAPGYIETHYGPDGQPVVLAPNHTDHCHYQGRVRGFPDSWVVLCTCSGMSGLITLSRNASYYLRPWPPRGSKDFSTHEIFRMEQLLTWKGTCGHRDPGNKAGMTSLPGGPQSRGRREARRTRKYLELYIVADHTLFLTRHRNLNHTKQRLLEVANYVDQLLRTLDIQVALTGLEVWTERDRSRVTQDANATLWAFLQWRRGLWAQRPHDSAQLLTGRAFQGATVGLAPVEGMCRAESSGGVSTDHSELPIGAAATMAHEIGHSLGLSHDPDGCCVEAAAESGGCVMAAATGHPFPRVFSACSRRQLRAFFRKGGGACLSNAP", "modifications": "Ser-Gly-His6 tag; homo sapiens"}}, "key": {"[1]": {"assay": "Thermal denaturation monitored by circular dichroism (220 nm) as a function of temperature and CaCl2 concentration", "assay_type": "physicochemical", "protocol": "The effect of CaCl2 on the stability of the ADAM33 N231Q catalytic domain as determined by thermal denaturation: The effect of the concentration of CaCl2 on the retention of the secondary structure of the ADAM33 N231Q catalytic domain was monitored by circular dichroism (λ220 nm) as a function of temperature. A parallel study was performed replacing the CaCl2 with NaCl to control for the effect of the corresponding increase in ionic strength. The ADAM33 N231Q catalytic domain was purified as described above and then diluted to 0.2 mg/ml. The sample was then dialyzed against 25 mM Hepes, pH 7.5, 5% glycerol overnight. The temperature dependent protein denaturation was performed using a JASCO 810 spectropolarimeter under the following conditions: • Protein concentration: 0.2 mg/ml (based on a BioRad Protein Assay) • Cell length: 0.1 cm • Monitor wavelength: 220 nm • Temperature slope: 2° C./min • Measurement range: 20-80° C.\nTherefore, greater than 10 μM CaCl2, and preferably between 0.3-100 mM CaCl2 should be included to maintain the stability of this protein."}, "[2]": {"assay": "Storage stability of purified protein (N-terminal sequencing, mass spectrometry, enzymatic assay)", "assay_type": "physicochemical", "details": "4° C.; expression induced with 0.5 mM CuSO4, purified as complex of pro and catalytic domains", "protocol": "The Ni-NTA column was washed with 15-20 CV of buffer C until a stable baseline was achieved, and the protein was eluted with 250 mM imidazole in buffer C. The eluted protein was concentrated to 5-15 mg/ml, and then applied to a SUPERDEX-75 gel filtration column equilibrated with buffer GF (25 mM HEPES, pH 7.5, 150 mM NaCl, 10% glycerol, 50 mM imidazole). Fractions corresponding to the monomer of ADAM33 were pooled, and diluted to 0.3 mg/ml, flash-frozen in liquid nitrogen, and stored at −80° C. […] When used for crystallography, the frozen protein was thawed on ice and concentrated to 10 mg/ml using Ultrafree®-15 Centrifugation Filter Device (Millipore, Bedford, Mass.). The thawed protein was immediately subjected to crystallization trials. Using this protocol a total of 1-9 mg of ADAM33 N231Q comprising the amino acid sequence of SEQ ID NO: 8 and SEQ ID NO: 36 (the C-Terminal Ser-Gly His6 Tag) was obtained from 1 liter of conditioned medium. 5 mM CaCl2 is preferably included throughout the purification process. It is also preferred that 5 mM CaCl2 is retained in the storage buffer.\nAfter designing an appropriate DNA construct, the expression of the ADAM33 catalytic domain in an eukaryotic cell line needed to be optimized. […] However, under these induction conditions, Cu^2+ readily binds to the C-terminal His6 Tag. […]"}}}
{"molecule": "B1", "values": [{"measurement": "ΔDenaturation Temp.", "setting": "[1]; CaCl2 0 mM", "result": 0.0, "unit": "°C"}, {"measurement": "Denaturation Temp.", "setting": "[1]; CaCl2 0 mM, 0.2 mg/ml protein, 25 mM Hepes pH 7.5, 5% glycerol", "result": 43.5, "unit": "°C"}, {"measurement": "Denaturation Temp.", "setting": "[1]; CaCl2 0.003 mM", "result": 50.6, "unit": "°C"}, {"measurement": "ΔDenaturation Temp.", "setting": "[1]; CaCl2 0.003 mM vs 0 mM", "result": 7.1, "unit": "°C"}, {"measurement": "Denaturation Temp.", "setting": "[1]; CaCl2 0.03 mM", "result": 52.9, "unit": "°C"}, {"measurement": "ΔDenaturation Temp.", "setting": "[1]; CaCl2 0.03 mM vs 0 mM", "result": 9.4, "unit": "°C"}, {"measurement": "Denaturation Temp.", "setting": "[1]; CaCl2 0.3 mM", "result": 53.9, "unit": "°C"}, {"measurement": "ΔDenaturation Temp.", "setting": "[1]; CaCl2 0.3 mM vs 0 mM", "result": 10.4, "unit": "°C"}, {"measurement": "Denaturation Temp.", "setting": "[1]; CaCl2 0.5 mM", "result": 56.9, "unit": "°C"}, {"measurement": "ΔDenaturation Temp.", "setting": "[1]; CaCl2 0.5 mM vs 0 mM", "result": 13.4, "unit": "°C"}, {"measurement": "Denaturation Temp.", "setting": "[1]; CaCl2 1.0 mM", "result": 57.9, "unit": "°C"}, {"measurement": "ΔDenaturation Temp.", "setting": "[1]; CaCl2 1.0 mM vs 0 mM", "result": 14.4, "unit": "°C"}, {"measurement": "Denaturation Temp.", "setting": "[1]; CaCl2 2.5 mM", "result": 60.6, "unit": "°C"}, {"measurement": "ΔDenaturation Temp.", "setting": "[1]; CaCl2 2.5 mM vs 0 mM", "result": 17.1, "unit": "°C"}, {"measurement": "Denaturation Temp.", "setting": "[1]; CaCl2 5.0 mM", "result": 61.5, "unit": "°C"}, {"measurement": "ΔDenaturation Temp.", "setting": "[1]; CaCl2 5.0 mM vs 0 mM", "result": 18.0, "unit": "°C"}, {"measurement": "Denaturation Temp.", "setting": "[1]; CaCl2 10.0 mM", "result": 63.3, "unit": "°C"}, {"measurement": "ΔDenaturation Temp.", "setting": "[1]; CaCl2 10.0 mM vs 0 mM", "result": 19.8, "unit": "°C"}, {"measurement": "Denaturation Temp.", "setting": "[1]; CaCl2 25.0 mM", "result": 64.6, "unit": "°C"}, {"measurement": "ΔDenaturation Temp.", "setting": "[1]; CaCl2 25.0 mM vs 0 mM", "result": 21.1, "unit": "°C"}, {"measurement": "Denaturation Temp.", "setting": "[1]; CaCl2 50.0 mM", "result": 65.6, "unit": "°C"}, {"measurement": "ΔDenaturation Temp.", "setting": "[1]; CaCl2 50.0 mM vs 0 mM", "result": 22.1, "unit": "°C"}, {"measurement": "Denaturation Temp.", "setting": "[1]; CaCl2 100.0 mM", "result": 65.2, "unit": "°C"}, {"measurement": "ΔDenaturation Temp.", "setting": "[1]; CaCl2 100.0 mM vs 0 mM", "result": 21.7, "unit": "°C"}, {"measurement": "stability in the presence of CaCl2 relative to NaCl", "setting": "[1]; equivalent ionic strength", "result": "significantly greater stability"}]}
{"molecule": "B2", "values": [{"measurement": "stability of purified protein", "setting": "[2]", "result": "labile"}]}
